The text below walks through data of article PMC10212944.

Data set [1] deals with T1, RPA (wild type) (Homo sapiens, UniProt P27694;P15927;P35244 1-616;1-270;1-121). Briefly: fluorescence anisotropy; stoichiometric binding; Stopped flow: 30 mM HEPES pH 7.8, 100 mM KCl, 5 mM MgCl2, 6% glycerol, 1 mM b-ME, 25 C; anisotropy: 50 mM Tris-acetate pH 7.5, 50 mM KCl, 5 mM MgCl2, 1 mM DTT. The note with it: protein: recombinant; copies: 1;1;1; label: 5'-FAM.
Data set [2] addresses T2, RPA S384D (Homo sapiens, UniProt P27694;P15927;P35244 1-616;1-270;1-121, S384D). As to the kind of experiment: fluorescence anisotropy; stoichiometric binding; same as WT; Stopped flow: 30 mM HEPES pH 7.8, 100 mM KCl, 5 mM MgCl2, 6% glycerol, 1 mM b-ME, 25 C; anisotropy: 50 mM Tris-acetate pH 7.5, 50 mM KCl, 5 mM MgCl2, 1 mM DTT. The note with it: protein: recombinant; copies: 1;1;1; label: 5'-FAM. Background: Fluorescence polarisation rises when a labelled molecule tumbles more slowly, as on binding a larger partner.

Data set [3] deals with T2, RPA S384D. Briefly: competition (facilitated exchange, stopped-flow FRET); displaces Cy3/Cy5-RPA, kFE 0.9 s-1; Stopped flow: 30 mM HEPES pH 7.8, 100 mM KCl, 5 mM MgCl2, 6% glycerol, 1 mM b-ME, 25 C; anisotropy: 50 mM Tris-acetate pH 7.5, 50 mM KCl, 5 mM MgCl2, 1 mM DTT. To be noted: protein: recombinant; copies: 1;1;1.
Data set [4] addresses T1, RPA (wild type). Briefly: competition (facilitated exchange, stopped-flow FRET); displaces Cy3/Cy5-RPA, kFE 1.8 s-1; Stopped flow: 30 mM HEPES pH 7.8, 100 mM KCl, 5 mM MgCl2, 6% glycerol, 1 mM b-ME, 25 C; anisotropy: 50 mM Tris-acetate pH 7.5, 50 mM KCl, 5 mM MgCl2, 1 mM DTT. The note with it: protein: recombinant; copies: 1;1;1.
For data set [5], the target named is T2, RPA S384D. Briefly: size exclusion chromatography; major 1:1, minor 2:1 protein:DNA; Stopped flow: 30 mM HEPES pH 7.8, 100 mM KCl, 5 mM MgCl2, 6% glycerol, 1 mM b-ME, 25 C; anisotropy: 50 mM Tris-acetate pH 7.5, 50 mM KCl, 5 mM MgCl2, 1 mM DTT. The note with it: protein: recombinant; copies: 1;1;1. Background: Size exclusion chromatography separates by hydrodynamic size, large species first.

The target in data set [6] is T1, RPA (wild type). Briefly: stopped-flow Trp fluorescence (koff/kon); kon 5.2e10 M-1 s-1, koff 39 s-1 as printed; Stopped flow: 30 mM HEPES pH 7.8, 100 mM KCl, 5 mM MgCl2, 6% glycerol, 1 mM b-ME, 25 C; anisotropy: 50 mM Tris-acetate pH 7.5, 50 mM KCl, 5 mM MgCl2, 1 mM DTT. The note with it: protein: recombinant; copies: 1;1;1.

T2 sequence (P27694 whole entry S384D, chain 1 of 3): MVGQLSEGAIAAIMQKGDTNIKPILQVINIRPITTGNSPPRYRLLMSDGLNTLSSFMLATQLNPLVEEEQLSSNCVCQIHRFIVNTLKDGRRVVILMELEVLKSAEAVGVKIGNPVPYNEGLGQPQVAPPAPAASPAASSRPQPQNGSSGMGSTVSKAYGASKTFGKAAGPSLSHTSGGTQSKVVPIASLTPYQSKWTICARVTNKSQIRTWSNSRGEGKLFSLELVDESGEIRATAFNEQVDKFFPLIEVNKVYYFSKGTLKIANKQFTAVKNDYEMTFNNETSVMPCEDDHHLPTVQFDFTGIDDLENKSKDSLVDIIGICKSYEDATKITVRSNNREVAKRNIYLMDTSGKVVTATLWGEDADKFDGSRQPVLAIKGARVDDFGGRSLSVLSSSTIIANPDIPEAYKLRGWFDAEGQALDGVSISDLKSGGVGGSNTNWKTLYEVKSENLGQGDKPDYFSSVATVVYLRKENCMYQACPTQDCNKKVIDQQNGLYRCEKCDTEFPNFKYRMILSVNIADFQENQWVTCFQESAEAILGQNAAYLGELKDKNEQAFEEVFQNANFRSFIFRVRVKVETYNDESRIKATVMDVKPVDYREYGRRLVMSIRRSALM
T2 sequence (P15927 whole entry, chain 2 of 3): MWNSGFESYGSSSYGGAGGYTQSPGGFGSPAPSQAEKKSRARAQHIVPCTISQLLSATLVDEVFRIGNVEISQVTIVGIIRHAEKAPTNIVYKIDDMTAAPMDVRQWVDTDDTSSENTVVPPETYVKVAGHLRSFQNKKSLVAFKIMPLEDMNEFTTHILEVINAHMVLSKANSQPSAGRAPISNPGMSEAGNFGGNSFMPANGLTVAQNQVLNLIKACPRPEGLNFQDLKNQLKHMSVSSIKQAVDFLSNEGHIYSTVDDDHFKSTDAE
T2 sequence (P35244 whole entry, chain 3 of 3): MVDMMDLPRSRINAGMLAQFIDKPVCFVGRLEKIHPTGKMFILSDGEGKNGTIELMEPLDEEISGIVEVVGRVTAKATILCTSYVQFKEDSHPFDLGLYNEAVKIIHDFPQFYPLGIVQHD
T1 sequence (P27694 whole entry, chain 1 of 3): as the sequence (P27694 whole entry S384D, chain 1 of 3) above, with D384S counted along it
T1 sequence (P15927 whole entry, chain 2 of 3): as the sequence (P15927 whole entry, chain 2 of 3) above
T1 sequence (P35244 whole entry, chain 3 of 3): as the sequence (P35244 whole entry, chain 3 of 3) above

B1: 5'-FAM-(dT)40 (ssDNA)
DNA: TTTTTTTTTTTTTTTTTTTTTTTTTTTTTTTTTTTTTTTT
Consider B1, for which the binding result with RPA (wild type) [1] and with RPA S384D [2] was “binds” throughout.

B2: (dT)97 (ssDNA)
DNA: TTTTTTTTTTTTTTTTTTTTTTTTTTTTTTTTTTTTTTTTTTTTTTTTTTTTTTTTTTTTTTTTTTTTTTTTTTTTTTTTTTTTTTTTTTTTTTTTT
Consider B2, for which the binding result with RPA S384D [3] and with RPA (wild type) [4] was “binds” in each case.

B3: (dT)35 (ssDNA)
DNA: TTTTTTTTTTTTTTTTTTTTTTTTTTTTTTTTTTT
As to B3, in the data set with RPA S384D [5], the binding result is “binds”. In addition, the Kd with RPA (wild type) [6] was 0.75 ± 0.4 nM.

B4: 5'-FAM-(dT)20 (ssDNA)
DNA: TTTTTTTTTTTTTTTTTTTT
Regarding B4, the binding result with RPA (wild type) [1] and with RPA S384D [2] was “binds” throughout.

In general, Kd refers to the concentration at which binding is half-saturated.
